Literature values in article PMC9843440.

Target: IκBα (Homo sapiens) (UniProt P25963)
Sequence of UniProt P25963 (P25963 whole entry): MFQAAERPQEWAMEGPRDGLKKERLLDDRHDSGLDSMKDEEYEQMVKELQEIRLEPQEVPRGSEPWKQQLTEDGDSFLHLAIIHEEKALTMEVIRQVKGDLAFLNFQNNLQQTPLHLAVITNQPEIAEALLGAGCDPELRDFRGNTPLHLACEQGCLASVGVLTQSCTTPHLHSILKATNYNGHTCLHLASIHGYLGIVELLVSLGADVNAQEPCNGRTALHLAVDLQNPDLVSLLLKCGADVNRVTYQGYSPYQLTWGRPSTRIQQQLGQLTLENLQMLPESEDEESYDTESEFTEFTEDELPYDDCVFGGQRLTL

Kd: 0.056 µM
Substance: IKKβ (from UniProt O14920)
